We go through one molecule from article PMC8488606, “The citron homology domain as a scaffold for Rho1 signaling” (Proceedings of the National Academy of Sciences of the …, 2021).

Broadly, the Kd is the constant that tells how readily two partners part at equilibrium.

Test [1] has as its target T1, Recombinant His6-Rom2 CNH (862-1194), citron homology domain of Aspergillus fumigatus Rom2 (Aspergillus fumigatus, UniProt Q4WUI2 862-1194, biotinylated using the EZLink NHS-Peg4-Biotin reagent (for BLI)).
T1 construct: Rom2 (guanine nucleotide exchange factor of Rho1), Aspergillus fumigatus, UniProt Q4WUI2, CNH domain construct residues 862-1194; Cloned into a noncleavable 6His version of pGEX6P1 with primers P23 and P24, then the C terminus was truncated with primers P19 and P20; The N-terminal end of the tag is read from the printed name 'His6-Rom2 CNH'; also called AfRom2 CNH; AfRom2CNH; source: E. coli BL21 …
T1 sequence (looked up): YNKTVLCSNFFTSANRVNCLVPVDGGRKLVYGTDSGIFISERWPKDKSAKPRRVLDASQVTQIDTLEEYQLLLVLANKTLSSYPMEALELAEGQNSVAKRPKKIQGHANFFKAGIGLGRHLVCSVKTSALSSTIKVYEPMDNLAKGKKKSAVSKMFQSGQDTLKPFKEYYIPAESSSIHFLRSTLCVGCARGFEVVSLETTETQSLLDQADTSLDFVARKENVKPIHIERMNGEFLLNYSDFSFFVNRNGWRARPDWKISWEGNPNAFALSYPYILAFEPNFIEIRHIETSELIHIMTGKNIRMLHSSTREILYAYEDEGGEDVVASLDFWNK
The test can be described thus: BLI; biotinylated AfRom2 CNH on super streptavidin (SSA) biosensors, apo AfRho1 (no nucleotide) in solution, Octet Htx; 25 mM Hepes, 150 mM NaCl, 0.5 mM TCEP pH 7.5; six-point series from 1 mM in threefold dilutions. The note with it: both partners purified. For orientation: Biolayer interferometry detects binding as a change in optical thickness at a sensor tip.

Test [2] addresses T1, Recombinant His6-Rom2 CNH (862-1194), …. As to the kind of experiment: BLI; biotinylated AfRom2 CNH on super streptavidin (SSA) biosensors, AfRho1 with GDP or GTPγS (saturating nucleotide) in solution, Octet Red 384; 25 mM Hepes, 150 mM NaCl, 0.5 mM TCEP pH 7.5; six-point series from 1 mM in threefold dilutions. The note with it: both partners purified.

B1: Recombinant AfRho1 (residues 1 to 181) with F25N mutation (enzyme)
chain: not shown
notes: Rho1 GTPase, Aspergillus fumigatus, residues 1 to 181, F25N introduced for protein stability; Expressed from pGEX6P1; GST removed with PreScission protease; Used without nucleotide, with GDP or with GTPγS in BLI; also called apo AfRho1; AfRho1-GDP; source: E. coli BL21 (non-DE3), purified (Glutathione-Sepharose, PreScission cleavage, Superdex 75)
Take B1: the Kd worked out at 80 µM in test [1] and 200 µM in test [2].
